Test results taken from a protein production outcome set (Wang et al. 2014).

Test: label from the status in PepcDB records
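Also: failed if final PepcDB status was selected cloned or expressed and not failed if soluble or beyond.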

Sequence	protein production
MLSSGITKAKGMAVVSEGSVPMDQSVGHLPASLLSLVSDPVPKEKVLLPKALRQTLLEKGCHNVRAHGFDAISTQASACSSVAQAGARHTQPSSRARAQVRGHTGDPLASTVSPDLTPDVYVLRVKLEETGELFRVANCRNDMTVRELKEELDLMVGIPFNLQRLHFLDRGILMDDATLKFYDVIPGALISLCIWHYDGWTELVLAAVEGDPSKMSCLGISEDTFYRTANSQHFKGEQWRQWTAQRAFVALYISAHRGHVDAVQYLLGLGANCLAKSPLGRTPLHVVAAMGRTDCVQPLLEHGASIHDRDLKSDTPITIARRLKRGHLEHKMFLLYWMVKSGSRDPDLVGRKALEKSSPGMATRRSTILIS	failed
MTVQSGELRPNLIALKTIVYREVHRFMRIWPQTLLPPAITMVLYFVIFGNLIGRQIGDMGSFTYMQYIVPGLIMMSVITNSYGNVVSSFFGAKFQHSIEELMVSPVSPHTILIGYTLGGVLRGLMVGFIVTMLSMFFTDLQVHHLGVTIVVVVLTATIFSLLGFINAVFARNFDDISIIPTFVLTPLTYLGGVFYSINLLPPFWQTVSLANPVLHMVNAFRYGILGVSDIKISIALAFMIVATFVLYFGCARLLVSGRGMRQ	failed
MPVVECDIQTARAALADAGASFSDGNSEHELWHADLGDAHAVAYADKLVVQGGSPTDITAVVQPDRGGRVHAYFDGASRGNPGPAAVGWVLVSGDGGIVAEGGDTIGRATNNQAEYDALIAALEAAADFGFDDIELRGDSQLVEKQLTGAWDTNDPDLRRKRVRARELLTGFDDWSITHVPRATNERADALANEALDDA	failed
MENPLFCPDCGMMRDNCTCKGKGRLSFFRNIIRPPEKSDTLNEDLQRRYPHIPPEIIENFPFPQPRPGQLDIINDIYQAIEEGYRYVILEAGTGTGKSAIACTLAGIYQPAYILTMTKQLQDQYAREFGFPVVKGRSNFFCLNDNLESTCDMGTCQTLPSSEKFQCPYGVVRGETLLGEEAFQDSYGNRVFFKTAEHCQYWEQKAEAINSPITLMNYDYAFLELNYVGHFDRRNLMILDEAHNIEDKLMRRLEVTISNKRLSKDIRRTIPPSMLREDDPAEWVLQIEAIADHYSDLELDSMSRRRRDRIKRTIKRLSELRMSLEDEPKNWVIDADDDSVSFKPLRVHHYAHDRLFSYSEVCLFMSATILSERLFCQWLGINPGDAYFVRVDSPFPASRRPIELKIAGKMSRNRIRHTAPETIPILNRILERHKNDKGLIHTHNYRCQRFIMDNIPSRRLIDHKASNREAVLRYFEESDEPLVLVSPSMSEGVDLPYDKCRFQVIYKIPFPYLGDKQVNRRQRMDQRWYAYKTIMTLMQAYGRGMRAHDDSCYTYILDGNIEMIFRSPLYRSLLPEFFKEAIVNE	failed
MSLRTGKTNVIALVLSVDEELMGFTSQMVFGITEVLSTTQYHLVVTPHIHAKDSMVPIRYILETGSADGVIISKIEPNDPRVRFMTERNMPFVTHGRSDMGIEHAFHDFDNEAYAYEAVERLAQCGRKRIAVIVPPSRFSFHDHARKGFNRGIRDFGLTEFPIDAVTIETPLEKIRDFGQRLMQSSDRPDGIVSISGSSTIALVAGFEAAGVKIGEDVDIVSKQSAEFLNWIKPQIHTVNEDIKLAGRELAKALLARINGEAAETLQSISGPVWSSMAPKEGHHHHHH	not failed
MTAFDPFEDFGDTEEIGERLNDADPAVRRLAVIDLAETANADVLPHLLTAVADPDATVRLQVAIALSEFDTVEAAAGLARLAADQDLTVAQAAADSLAELKDPATADSILPLVSHGRAFVRAAGFRGLKALRSRGALAPALAAMRDEDANVRAQALGVVAYLKLEETLPSLIAATRDAEAIVRSVAVNALSFTSQPAAAAAVTAALDDENWQVRAAAADTLGRIGQTSAVDGLTAGLSDEYWQVRQKCLNALGKLKAQSAVRQISELLTSDLASLRKESAAALGEIADPSSRAVLMHHIGDADPDVRKTVCWALTRLG	failed
MPPPLRVLILEDSEDDYFLLVRALKREFDIVPERVDSEESLRANLCEKRWDIVLSDYFMPQFDALAALTLIQSMNLDIPFIIVSGKIGEFEAVKAMKAGAHDYIMKGDYTRLIPAIRRELREAVIRQEQRRTDHELREQLHFRQALIDAIPAPIYFMDTTGIFLGCNKAFEAFSGHTQDEIVGKTIYDLMPPSLAKHTDSADRELFEHGGIQIYESVISFADGALHDVIFYKATFTTTEKNIGGLVGTILDITERKQTEERLRYMSTHDTLTGLYNRAYFQEEMERLEQGRQFPVSVVVFDVDRLKYVNDSQGHAAGDELLIRAALVLKGAFRAEDVVARIGGDEFAVLLPSADADVVQEALRRVIGKIEQSQTEDHPVPLSISFGAATASKGDRLEEVLKLADRRMYENKFKKCCVLPA	failed
MLEVDVVRISVIVPIYNVKLYIERCVRSLMEQTLENIEFIFVNDCTPDDSMDILHYVLEEYPKRREQIKIIEHETNRGISAVRNTGLKNATGQYIIYCDSDDWVEKNMYEKLLVKALETSADIVGCDFFDDYVAHSTIRKQLFPQQSEKCVKKMLRGELHCGTWNKLVIKSLYERTKIDFPEGINMWEDVSTIIPLCFHATKIDYIPEALYHYIHHNVSSYTYSVTEKSLENLVASIQLLESFFLTNQCFKTFGEDLCFMKLTVKLNLLLGSKGELQKKRNMLYSSANRYIFSYSGMSWYWKIALWVASKKMLFCFNVMSCIERIIKKWKLEHHHHHH	failed
MAALSEKEAEAYLDARPRYPIDWFKKIAARTQDHKFAWDVGTGNGQAAIGLVEHYENVVATDINEAQLQRAIKHSRISYHHTPTTISEDEMVDLLGGENSVDLIVAAQAVHFFDLNVFYNVAKRVLRKEGGLIAVWVYNDIIISHEIDPIMKRLVDSTLPFRTPIMNLAFDGYKTLTFPFETIGMGSEGKPITLDIPHKLSLKGFIGFLRSWQPAMKAKEKGVELINEDLITKFEEAWGDETQVKDVFYKAHMIVGKIPEEKFESDQVLSNKGRLLLETEVGRNQKRPQPSDEGDRQSKKQNTSEDDACKDKPSSVFSTHYRF	failed
MEEKANTGQVIIVLTEHLTFGTLLIPYMAEKSDDGTYQLIEQAFHASPEAISRMNEAEQQAIDIASHYTEKYLMGIYSREKTVSRFLRKLSEDPERVKNNIRPFIEKKMQEMLTLIRHHNLPLYQKQVGSKLLYAHHAYHVHPHDVEIRFTFLADETNFRYQLQCYYDGQPLSLSEQKPVIVLTSSPSALLLGMELYFFPHIESVRILPFTKKKKISVPASQIEKYIDNIVIPIARYHEITTQGLNIIEETYACEAVLSLEDTIYDEQMLRLSFRYGDQSFTPDTVTEMKKIIYRNDFGEIFFFRRDSDAEEEKLRMLTDSGLQRVSDVHFKLSPDAPEKTITEWISTYREMLQQSFLLTGNMGNTPYCLDEIRIEQSCDDEPDWFELHITVVIGNLRIPFSRFRKHILEEKREFLLPDGRMILLPEEWFSKYGNLLELGTQTETGIRLKPTFVGAVQSALEENGPKNLLFKREIRNVPVPQGLNAKLRPYQQKGFSWMVQLNKQGFGGCLADDMGLGKTLQTLTLLQYIYKPLSPDAVTAPMKPVFTETTASDSQPDKECTANNPPVREQIADAEGQFSLFSFSSEDELLPDAREIREKNRPKEDDHRQEHGKNSRKPATLIVVPTSLLHNWRREAKRFTTLAIAEYNSNTAFPKGHPEKFFNHFHLIFTTYGMMRNNIDILRSYTFEYIVLDESQNIKNNDSLTFRSVIQLQGKHRIALTGTPIENSLKDLWAQFRFLQPDLLGEESTFHKQFIIPIRQGNVRMEKRLQQIIAPFILRRSKSEVAPELPPLTEETIYCAMSEKQGESYEQEKNSLRNILLQQPENKDRYHMFSILNGILRLRQLACHPQLIFPDFDGVSGKTEQIIDTFDTLRSEGHKVLIFSSFVRHLEILAEVFRQRGWKYALLTGSTNNRPSEIAHFTEQKDVQAFLISLKAGGVGLNLTQADYVFIIDPWWNPAAESQAIARAHRIGQDKQVIAYRFITQNSIEEKILQLQEDKRRLAETFITDSEALPALSNEQWADLLK	failed
MEDKRNRGRRITDRITEAYYELMKIVAENNHERMFEYYVEDDEAYIFKIVNSSPAQETVYPFFKQNIDTYMSECPADSIECFKKQLDKCLLRPMRTAFQLSFISEDGKSRPVEMYMVSIPDLDKKVCMVVGVMFDIRDEKGLLDSLTGTYNHLAFENKCTSLIRQKGTKLLFVMLDVDDFKIVNDTLGHNVGDRVLSQTGQVLKEAVGANGIVGRLGGDEFAAIVFGLEDSDAVDEFCVKLSGRLKNIIFDMEYSASIGMTTGDDRELTFKDLYYEADQAMYYSKRQGKNRISFFNSIRKNDITVPHNSCAPSITDVSCRMSDREIFSYDEMPDYILAVDEESRRIVFVNKAIRNSSVMTASQIDEFISKPFEDGFIDLFLRKKEQGNRVSVFQERIIPTI	failed
MGLDDLVGQWLLPGMALAAVGVFFCIKGYLLRRQMARDALTDALTVGELRRRVHALVLGKRQRVYSGAMFLVEVVHHPELSAMLGLEDNKLLLAMIAQRLQMQSDYFQVARHSSDSFMVWAPDLDPRSARDVAPEVLDALSQPYELRGQPLIVGFRLSGALYAQHGACFDELERSLHIAMLHLDESAGAAWNMFEPSMLEHQRHYQGLEHDLRVALVSSSMDQFEVCYQPVCDSVTGTIYGCEALLRWHHPVHGDVSPALVIELAERTGLIVPLGAWVLETACSRAITWPAAWRLHVNVSVRQMYADELPAQVALALAASRLSAQRLVLEITESLFIQQYERHVATLNGMRAKGVRVALDDFGAGYSSLTHLRRLPIDWVKLDRGFVAEIEFDAVSREVVSALMGMCRALGLAVVAEGVETPAQREILKALGCREMQGFLLGRPVSAERIRELGAAVS	failed
MDKLEPLRINMRHGSILAVHFFIPGKPTICHQTARTLIRHIPFQCLLRVTSQNLDVGEFVKIYHEEKAEVKSSSLAKKIPKTSNLLASTSDKLELARAITTFKEEEIRHLAEPDDVDFVLTLDVADVGVSKIVIDVGSLIDLLFLSTLGENGK	failed
MQMKKDFGYIRVGVASCELKVANPNYNVKSIISIMKKAYRRHHIKVLVFPELCVTGYTCGDLFNQNLLIKRAENELNNLLVSTSNINMITAVGMPVKADNQLFNCAVIINNGNILGVVPKTFIPTYNEFYEKRNFAGAISRISDEIILCGKKVPFGENLLFKDIYSELCIGIDICEDLWVNIPPSSYHTLNGANLILNLSASDEIVAKSDYRRDLVRLQSAKCITSYAYASSGQTESTSDLVFSGHSIIADNGSILKDIKFEEASYVKYADVDIEKLISDRIKFNTYMGRIEDKEYRTINFHLGYNENMHLERYVEASPFVPSNKSKRNIRCREILDLQASGLYQRLNKTGINKAVVGISGGLDSTLALLVIVEAFKKLKAPMKNIIGITMPGFGTTRRTYNNAVELMKKLGITIKEISIKKACIQHFNDIGQDLNTHDTIYENSQARERTQILMDIANKEGAIVVGTGDLSELALGWCTYNGDQMSMYGVNSSIPKTLVKYLIMWYAEASKDNDIRNILLDIYNTPVSPELLPPDKEGNIKQKTEDLIGSYELNDFFLYNMLRSGYEPLKILYLANIAFKDKYSEDVIHSALKNFYKRFFTQQFKRNCMPDGVKIGSVSLSPRGDLRMPSDASYGLWMDEL	failed
MSLSLYYKKIREQLGHELIFMPSVAAVIKNEQGELLFQYPGGEYWSLPAGAIEPGETPEEAVIREVWEETGLKVQVKKQKGVFGGKEFRYTYANGDKVEYIVVVFECEITSGKLKSIDGESLKLQYFSFSEKPPLALPYPDKIFLEGHHHHHH	not failed
MTTTPDWIMIGGDGPESYNQQSSYQRALLEATKDKMTKAISANLDLDLISNRFIVADFGCASGPNTFVAVQNIIDAVEEKYRRETGQNPADNIEFQVLFNDFSLNDFNTLFQTLPPGRRYFSAGVPGSFFERVLPKESFHIGVMSYAFHFTSKIPKGIMDRDSPLWNKDMQCTGFNPAVKKAYLDQYSIDTKILLDARAEELVPGGLMLLLGSCLRDGVKMSETPKGTVMDFIGESLSDLAKQGVTEQEKVDTFRTSIYFAEQGEIRQIIEENGKFTIEAFEDIIHAKNEFPFDPKTLAISFKAFYGAFISAHFGVEVMRKAFELVEVKAREQISRLHNSKPGMQYLIVLRKN	failed
MNSTRGVTLIQLSSALAYSHALMNQVVNPGDHVIDATVGNGHDTVYLAKLVGTTGHVDGFDIQSAAIEATTTALDKAALTHQVTLWQTGHEHIADKIAADQPIKCAVFNLGYLPGGDKQIITKPTTTLTAIKAIQERLVTNGLIILLVYAGHPGGATEAQAVLDYVTNLDQHQFQVLQYQFINQVHVPPYLLAIQKR	failed
